The text below walks through data of paper PMC7156742, “RNA-DNA strand exchange by the Drosophila Polycomb complex PRC2”.

One series concerns the target PRC2 (UniProt P42124;Q24338;Q9NJG9;Q24572 1-760;1-425;1-900;1-430). In words: filter binding; 12 mM Hepes pH 7.9, 0.12 mM EDTA, 120 nM KCl (so in the source); probably mM), 1 mM DTT, 0.01% NP40, 12% glycerol, 0.01 nM probe, 30 min at 30 °C; EMSA plus 50 ng/uL BSA. As to conditions: protein: recombinant; tags: 6xHis-E(Z); FLAG on Esc or Su(Z)12; copies: 1;1;1;1; label: Cy5 or Cy3 on DNA R; 32P at unlabelled 5' ends; blunt.

A further series has as its target PRC1ΔPh (UniProt P35820;P26017;Q9VB08 1-1601;1-390;1-435). The series is described as above. Particulars: protein: recombinant; tags: FLAG; copies: 1;1;1; label: Cy5 or Cy3 on DNA R; 32P at unlabelled 5' ends; blunt.

Sequence of PRC1ΔPh (P35820 whole entry, stated change not applied, chain 1 of 3): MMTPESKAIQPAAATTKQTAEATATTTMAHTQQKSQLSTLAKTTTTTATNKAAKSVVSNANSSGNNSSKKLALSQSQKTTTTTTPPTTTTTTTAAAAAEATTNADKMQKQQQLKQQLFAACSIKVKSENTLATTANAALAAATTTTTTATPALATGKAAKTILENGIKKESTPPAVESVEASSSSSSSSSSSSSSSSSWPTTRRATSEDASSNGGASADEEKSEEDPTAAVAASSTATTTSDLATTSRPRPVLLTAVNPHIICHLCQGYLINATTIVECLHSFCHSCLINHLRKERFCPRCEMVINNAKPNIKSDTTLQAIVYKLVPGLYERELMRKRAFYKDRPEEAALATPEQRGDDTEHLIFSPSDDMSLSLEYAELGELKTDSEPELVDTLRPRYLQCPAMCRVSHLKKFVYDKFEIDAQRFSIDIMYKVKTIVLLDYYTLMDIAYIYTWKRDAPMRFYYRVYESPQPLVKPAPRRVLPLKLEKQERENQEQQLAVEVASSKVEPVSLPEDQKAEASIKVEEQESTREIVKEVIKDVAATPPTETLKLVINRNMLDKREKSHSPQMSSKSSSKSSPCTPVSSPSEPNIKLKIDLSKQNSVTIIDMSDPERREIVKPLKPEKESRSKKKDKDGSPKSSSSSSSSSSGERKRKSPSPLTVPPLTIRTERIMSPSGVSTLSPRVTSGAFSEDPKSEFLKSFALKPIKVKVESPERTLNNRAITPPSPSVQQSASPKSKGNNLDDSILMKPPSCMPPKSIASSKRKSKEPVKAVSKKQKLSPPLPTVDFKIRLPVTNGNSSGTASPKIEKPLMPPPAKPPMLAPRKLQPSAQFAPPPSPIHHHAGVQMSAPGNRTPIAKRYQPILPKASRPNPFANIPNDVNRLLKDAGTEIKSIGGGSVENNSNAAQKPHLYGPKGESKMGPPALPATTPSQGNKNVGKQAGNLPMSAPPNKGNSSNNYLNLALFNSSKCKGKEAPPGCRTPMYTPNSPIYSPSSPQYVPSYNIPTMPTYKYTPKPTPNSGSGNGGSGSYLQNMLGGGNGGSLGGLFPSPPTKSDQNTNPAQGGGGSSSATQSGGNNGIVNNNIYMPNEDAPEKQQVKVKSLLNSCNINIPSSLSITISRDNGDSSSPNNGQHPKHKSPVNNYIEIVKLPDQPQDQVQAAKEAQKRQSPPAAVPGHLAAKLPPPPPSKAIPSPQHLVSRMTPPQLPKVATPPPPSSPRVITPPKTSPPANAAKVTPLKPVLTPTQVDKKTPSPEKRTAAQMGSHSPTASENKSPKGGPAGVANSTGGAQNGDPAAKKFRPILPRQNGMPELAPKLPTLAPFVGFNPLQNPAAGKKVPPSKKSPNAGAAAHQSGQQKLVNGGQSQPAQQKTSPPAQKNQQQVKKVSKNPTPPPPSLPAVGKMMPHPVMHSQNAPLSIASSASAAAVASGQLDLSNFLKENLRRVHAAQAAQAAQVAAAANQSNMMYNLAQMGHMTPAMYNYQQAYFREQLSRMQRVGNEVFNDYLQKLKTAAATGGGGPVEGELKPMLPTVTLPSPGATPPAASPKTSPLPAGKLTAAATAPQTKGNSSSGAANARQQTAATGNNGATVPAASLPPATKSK
Sequence of PRC1ΔPh (P26017 whole entry, stated change not applied, chain 2 of 3): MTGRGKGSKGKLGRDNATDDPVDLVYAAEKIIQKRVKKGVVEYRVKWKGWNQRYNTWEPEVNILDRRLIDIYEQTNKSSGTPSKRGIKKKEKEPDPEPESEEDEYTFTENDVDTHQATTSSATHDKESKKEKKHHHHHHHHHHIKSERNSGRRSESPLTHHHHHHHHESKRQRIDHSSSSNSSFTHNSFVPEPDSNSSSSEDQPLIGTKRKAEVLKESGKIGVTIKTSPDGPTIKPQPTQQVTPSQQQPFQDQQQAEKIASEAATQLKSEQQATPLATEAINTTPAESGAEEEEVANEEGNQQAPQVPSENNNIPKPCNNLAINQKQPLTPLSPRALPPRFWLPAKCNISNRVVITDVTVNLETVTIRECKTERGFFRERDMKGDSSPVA
Sequence of PRC1ΔPh (Q9VB08 whole entry, stated change not applied, chain 3 of 3): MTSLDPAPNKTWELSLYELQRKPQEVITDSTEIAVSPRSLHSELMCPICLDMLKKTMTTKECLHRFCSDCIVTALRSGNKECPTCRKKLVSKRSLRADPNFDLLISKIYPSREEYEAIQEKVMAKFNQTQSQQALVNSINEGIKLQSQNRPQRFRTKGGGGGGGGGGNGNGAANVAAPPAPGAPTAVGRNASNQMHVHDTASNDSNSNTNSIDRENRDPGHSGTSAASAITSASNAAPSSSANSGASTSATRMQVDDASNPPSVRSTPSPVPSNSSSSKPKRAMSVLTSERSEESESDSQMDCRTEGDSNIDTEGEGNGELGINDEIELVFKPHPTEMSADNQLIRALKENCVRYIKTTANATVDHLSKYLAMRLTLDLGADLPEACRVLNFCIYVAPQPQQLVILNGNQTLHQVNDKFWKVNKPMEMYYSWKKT

B1: vg PRE dsDNA (dsDNA)
DNA 1: CGGGTTGTCAAGAATTTTAACGGCCATTTCTGTGAGTGTGTGCGAGCTGCCAAGTGTGTGTGAGTGTGTTTGTGACAAACGCAAGCTCATGTAAGTGCTC
DNA 2: GAGCACTTACATGAGCTTGCGTTTGTCACAAACACACTCACACACACTTGGCAGCTCGCACACACTCACAGAAATGGCCGTTAAAATTCTTGACAACCCG
Take B1: the Kd with PRC2 amounted to 6.44 nM; with PRC1ΔPh it was 0.164 nM.
